Patent US20160251438A1

Columns and labels:
[1] = target: GARP / TGF-β1 Y336Q complex (human) (UniProt Q14392); test: FACS titration on transfected 293T; EC50 mutant / EC50 WT
[2] = target: GARP / TGF-β1 Y336Q complex (human) (UniProt Q14392); test: flow cytometry on transfected 293T cells, 5 ug/ml; grade of Loss of binding read by footnote 2
[3] = target: GARP / TGF-β1 Y336Q complex (human) (UniProt Q14392); test: FACS titration on transfected 293T; EC50 mutant / EC50 WT [cont.) B]
[4] = target: GARP / TGF-β1 Y336Q complex (human) (UniProt Q14392); test: flow cytometry titration on transfected 293T cells; grade of Reduced avidity read by footnote 3

Chain of GARP / TGF-β1 Y336Q complex (human) (Q14392 20-662, chain 1 of 2): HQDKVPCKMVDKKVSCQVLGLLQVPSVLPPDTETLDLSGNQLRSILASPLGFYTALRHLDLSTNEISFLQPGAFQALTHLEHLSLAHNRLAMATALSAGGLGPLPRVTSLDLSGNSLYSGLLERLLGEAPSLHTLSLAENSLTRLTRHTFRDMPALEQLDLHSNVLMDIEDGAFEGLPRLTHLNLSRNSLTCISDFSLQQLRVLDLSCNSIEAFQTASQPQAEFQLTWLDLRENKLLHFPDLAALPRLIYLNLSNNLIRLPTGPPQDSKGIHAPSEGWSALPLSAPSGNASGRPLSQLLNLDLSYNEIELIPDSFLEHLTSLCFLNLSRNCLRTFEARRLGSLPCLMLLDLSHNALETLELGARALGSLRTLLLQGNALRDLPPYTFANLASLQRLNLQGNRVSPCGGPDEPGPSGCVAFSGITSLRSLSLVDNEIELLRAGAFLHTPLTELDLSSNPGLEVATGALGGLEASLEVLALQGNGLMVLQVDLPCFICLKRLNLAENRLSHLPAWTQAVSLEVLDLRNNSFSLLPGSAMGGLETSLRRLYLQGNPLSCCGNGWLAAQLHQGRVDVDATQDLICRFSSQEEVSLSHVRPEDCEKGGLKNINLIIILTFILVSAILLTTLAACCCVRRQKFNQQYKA
Chain of GARP / TGF-β1 Y336Q complex (human) (P01137 30-390 Y336Q, chain 2 of 2, further chain): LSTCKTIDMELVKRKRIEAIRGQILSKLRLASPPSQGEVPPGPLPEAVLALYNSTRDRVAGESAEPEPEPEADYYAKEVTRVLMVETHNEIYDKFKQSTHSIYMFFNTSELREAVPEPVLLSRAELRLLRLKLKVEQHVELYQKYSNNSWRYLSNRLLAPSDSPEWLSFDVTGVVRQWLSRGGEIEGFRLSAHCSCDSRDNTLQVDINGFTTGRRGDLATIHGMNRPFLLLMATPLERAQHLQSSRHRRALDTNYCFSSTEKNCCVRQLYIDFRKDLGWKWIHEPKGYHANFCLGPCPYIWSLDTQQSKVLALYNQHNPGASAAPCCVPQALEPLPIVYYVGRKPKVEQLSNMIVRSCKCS

| Ratio of EC50 (mutant / wt) [1] | residual binding on mutant by comparison to WT [2] | Ratio of EC50 (mutant / wt) [3] | ratio of EC50 (mutant vs WT) [4] | Binder |
| --- | --- | --- | --- | --- |
| 0.9 | > 50% | – | – | MHGARP8 (antibody, V domains shown) VH: QVQLKESGPGLVAPSQSLSITCTVSGFSLTGYGINWVRQPPGKGLEWLGMIWSDGSTDYNSVLTSRLRISKDNSNSQVFLKMNSLQVDDTARYYCARDRNYYDYDGAMDYWGQGTSVTVSS VL: DIQVTQSSSYLSVSLGDRVTITCKASDHIKNWLAWYQQKPGIAPRLLVSGATSLEAGVPSRFSGSGSGKNFTLSITSLQTEDVATYYCQQYWSTPWTFGGGTTLEIR |
| – | > 50% | 1.1 | < 2 | LHG-10 (antibody, human IgG1, V domains shown) VH: EVQLVQPGAELRNSGASVKVSCKASGYRFTSYYIDWVRQAPGQGLEWMGRIDPEDGGTKYAQKFQGRVTFTADTSTSTAYVELSSLRSEDTAVYYCARNEWETVVVGDLMYEYEYWGQGTQVTVSS VL: DIQMTQSPTSLSASLGDRVTITCQASQSISSYLAWYQQKPGQAPKLLIYGASRLQTGVPSRFSGSGSGTSFTLTISGLEAEDAGTYYCQQYDSLPVTFGQGTKVELK |
